This note sets out measurements from patent publication US20210388087A1 (Chugai, published 2021).

Sequences and labels used below:
B1: dBBDu183H P100eF/dBBDu072L (antibody, name in Kabat numbering, V domains shown)
VH: QVQLVESGGGLVQPGRSLRLSCAASGFTFSNAWMHWVRQAPGKGLEWVAQIKDKGNAYAAYYAPSVKGRFTISRDDSKNSIYLQMNSLKTEDTAVYYCHYVHYASASTVLFAFGVDAWGQGTTVTVSS
VL: DIVMTQSPLSLPVTPGEPASISCQASQELVHMNRNTYLHWYQQKPGQAPRLLIYKVSNRFPGVPDRFSGSGSGTDFTLKISRVEAEDVGVYYCAQGTSVPFTFGQGTKLEIK
B2: dBBDu183H P100eH/dBBDu072L (antibody, name in Kabat numbering, V domains shown)
VH: QVQLVESGGGLVQPGRSLRLSCAASGFTFSNAWMHWVRQAPGKGLEWVAQIKDKGNAYAAYYAPSVKGRFTISRDDSKNSIYLQMNSLKTEDTAVYYCHYVHYASASTVLHAFGVDAWGQGTTVTVSS
VL: DIVMTQSPLSLPVTPGEPASISCQASQELVHMNRNTYLHWYQQKPGQAPRLLIYKVSNRFPGVPDRFSGSGSGTDFTLKISRVEAEDVGVYYCAQGTSVPFTFGQGTKLEIK
B3: dBBDu183H S62H/dBBDu072L (antibody, name in Kabat numbering, V domains shown)
VH: QVQLVESGGGLVQPGRSLRLSCAASGFTFSNAWMHWVRQAPGKGLEWVAQIKDKGNAYAAYYAPHVKGRFTISRDDSKNSIYLQMNSLKTEDTAVYYCHYVHYASASTVLPAFGVDAWGQGTTVTVSS
VL: DIVMTQSPLSLPVTPGEPASISCQASQELVHMNRNTYLHWYQQKPGQAPRLLIYKVSNRFPGVPDRFSGSGSGTDFTLKISRVEAEDVGVYYCAQGTSVPFTFGQGTKLEIK
B4: dBBDu183H S62N/dBBDu072L (antibody, name in Kabat numbering, V domains shown)
VH: QVQLVESGGGLVQPGRSLRLSCAASGFTFSNAWMHWVRQAPGKGLEWVAQIKDKGNAYAAYYAPNVKGRFTISRDDSKNSIYLQMNSLKTEDTAVYYCHYVHYASASTVLPAFGVDAWGQGTTVTVSS
VL: DIVMTQSPLSLPVTPGEPASISCQASQELVHMNRNTYLHWYQQKPGQAPRLLIYKVSNRFPGVPDRFSGSGSGTDFTLKISRVEAEDVGVYYCAQGTSVPFTFGQGTKLEIK
B5: dBBDu183H S62K/dBBDu072L (antibody, name in Kabat numbering, V domains shown)
VH: QVQLVESGGGLVQPGRSLRLSCAASGFTFSNAWMHWVRQAPGKGLEWVAQIKDKGNAYAAYYAPKVKGRFTISRDDSKNSIYLQMNSLKTEDTAVYYCHYVHYASASTVLPAFGVDAWGQGTTVTVSS
VL: DIVMTQSPLSLPVTPGEPASISCQASQELVHMNRNTYLHWYQQKPGQAPRLLIYKVSNRFPGVPDRFSGSGSGTDFTLKISRVEAEDVGVYYCAQGTSVPFTFGQGTKLEIK
B6: dBBDu183H P100eG/dBBDu072L (antibody, name in Kabat numbering, V domains shown)
VH: QVQLVESGGGLVQPGRSLRLSCAASGFTFSNAWMHWVRQAPGKGLEWVAQIKDKGNAYAAYYAPSVKGRFTISRDDSKNSIYLQMNSLKTEDTAVYYCHYVHYASASTVLGAFGVDAWGQGTTVTVSS
VL: DIVMTQSPLSLPVTPGEPASISCQASQELVHMNRNTYLHWYQQKPGQAPRLLIYKVSNRFPGVPDRFSGSGSGTDFTLKISRVEAEDVGVYYCAQGTSVPFTFGQGTKLEIK
B7: dBBDu183H P100eV/dBBDu072L (antibody, name in Kabat numbering, V domains shown)
VH: QVQLVESGGGLVQPGRSLRLSCAASGFTFSNAWMHWVRQAPGKGLEWVAQIKDKGNAYAAYYAPSVKGRFTISRDDSKNSIYLQMNSLKTEDTAVYYCHYVHYASASTVLVAFGVDAWGQGTTVTVSS
VL: DIVMTQSPLSLPVTPGEPASISCQASQELVHMNRNTYLHWYQQKPGQAPRLLIYKVSNRFPGVPDRFSGSGSGTDFTLKISRVEAEDVGVYYCAQGTSVPFTFGQGTKLEIK
B8: dBBDu183H P100eW/dBBDu072L (antibody, name in Kabat numbering, V domains shown)
VH: QVQLVESGGGLVQPGRSLRLSCAASGFTFSNAWMHWVRQAPGKGLEWVAQIKDKGNAYAAYYAPSVKGRFTISRDDSKNSIYLQMNSLKTEDTAVYYCHYVHYASASTVLWAFGVDAWGQGTTVTVSS
VL: DIVMTQSPLSLPVTPGEPASISCQASQELVHMNRNTYLHWYQQKPGQAPRLLIYKVSNRFPGVPDRFSGSGSGTDFTLKISRVEAEDVGVYYCAQGTSVPFTFGQGTKLEIK
B9: dBBDu183H P100eT/dBBDu072L (antibody, name in Kabat numbering, V domains shown)
VH: QVQLVESGGGLVQPGRSLRLSCAASGFTFSNAWMHWVRQAPGKGLEWVAQIKDKGNAYAAYYAPSVKGRFTISRDDSKNSIYLQMNSLKTEDTAVYYCHYVHYASASTVLTAFGVDAWGQGTTVTVSS
VL: DIVMTQSPLSLPVTPGEPASISCQASQELVHMNRNTYLHWYQQKPGQAPRLLIYKVSNRFPGVPDRFSGSGSGTDFTLKISRVEAEDVGVYYCAQGTSVPFTFGQGTKLEIK
B10: dBBDu183H S62D/dBBDu072L (antibody, name in Kabat numbering, V domains shown)
VH: QVQLVESGGGLVQPGRSLRLSCAASGFTFSNAWMHWVRQAPGKGLEWVAQIKDKGNAYAAYYAPDVKGRFTISRDDSKNSIYLQMNSLKTEDTAVYYCHYVHYASASTVLPAFGVDAWGQGTTVTVSS
VL: DIVMTQSPLSLPVTPGEPASISCQASQELVHMNRNTYLHWYQQKPGQAPRLLIYKVSNRFPGVPDRFSGSGSGTDFTLKISRVEAEDVGVYYCAQGTSVPFTFGQGTKLEIK
B11: dBBDu183H S62F/dBBDu072L (antibody, name in Kabat numbering, V domains shown)
VH: QVQLVESGGGLVQPGRSLRLSCAASGFTFSNAWMHWVRQAPGKGLEWVAQIKDKGNAYAAYYAPFVKGRFTISRDDSKNSIYLQMNSLKTEDTAVYYCHYVHYASASTVLPAFGVDAWGQGTTVTVSS
VL: DIVMTQSPLSLPVTPGEPASISCQASQELVHMNRNTYLHWYQQKPGQAPRLLIYKVSNRFPGVPDRFSGSGSGTDFTLKISRVEAEDVGVYYCAQGTSVPFTFGQGTKLEIK
B12: dBBDu183H P100eY/dBBDu072L (antibody, name in Kabat numbering, V domains shown)
VH: QVQLVESGGGLVQPGRSLRLSCAASGFTFSNAWMHWVRQAPGKGLEWVAQIKDKGNAYAAYYAPSVKGRFTISRDDSKNSIYLQMNSLKTEDTAVYYCHYVHYASASTVLYAFGVDAWGQGTTVTVSS
VL: DIVMTQSPLSLPVTPGEPASISCQASQELVHMNRNTYLHWYQQKPGQAPRLLIYKVSNRFPGVPDRFSGSGSGTDFTLKISRVEAEDVGVYYCAQGTSVPFTFGQGTKLEIK
B13: dBBDu183H P100eS/dBBDu072L (antibody, name in Kabat numbering, V domains shown)
VH: QVQLVESGGGLVQPGRSLRLSCAASGFTFSNAWMHWVRQAPGKGLEWVAQIKDKGNAYAAYYAPSVKGRFTISRDDSKNSIYLQMNSLKTEDTAVYYCHYVHYASASTVLSAFGVDAWGQGTTVTVSS
VL: DIVMTQSPLSLPVTPGEPASISCQASQELVHMNRNTYLHWYQQKPGQAPRLLIYKVSNRFPGVPDRFSGSGSGTDFTLKISRVEAEDVGVYYCAQGTSVPFTFGQGTKLEIK
B14: dBBDu183H P100eQ/dBBDu072L (antibody, name in Kabat numbering, V domains shown)
VH: QVQLVESGGGLVQPGRSLRLSCAASGFTFSNAWMHWVRQAPGKGLEWVAQIKDKGNAYAAYYAPSVKGRFTISRDDSKNSIYLQMNSLKTEDTAVYYCHYVHYASASTVLQAFGVDAWGQGTTVTVSS
VL: DIVMTQSPLSLPVTPGEPASISCQASQELVHMNRNTYLHWYQQKPGQAPRLLIYKVSNRFPGVPDRFSGSGSGTDFTLKISRVEAEDVGVYYCAQGTSVPFTFGQGTKLEIK
B15: dBBDu183H P100eK/dBBDu072L (antibody, name in Kabat numbering, V domains shown)
VH: QVQLVESGGGLVQPGRSLRLSCAASGFTFSNAWMHWVRQAPGKGLEWVAQIKDKGNAYAAYYAPSVKGRFTISRDDSKNSIYLQMNSLKTEDTAVYYCHYVHYASASTVLKAFGVDAWGQGTTVTVSS
VL: DIVMTQSPLSLPVTPGEPASISCQASQELVHMNRNTYLHWYQQKPGQAPRLLIYKVSNRFPGVPDRFSGSGSGTDFTLKISRVEAEDVGVYYCAQGTSVPFTFGQGTKLEIK
B16: dBBDu183H S62Q/dBBDu072L (antibody, name in Kabat numbering, V domains shown)
VH: QVQLVESGGGLVQPGRSLRLSCAASGFTFSNAWMHWVRQAPGKGLEWVAQIKDKGNAYAAYYAPQVKGRFTISRDDSKNSIYLQMNSLKTEDTAVYYCHYVHYASASTVLPAFGVDAWGQGTTVTVSS
VL: DIVMTQSPLSLPVTPGEPASISCQASQELVHMNRNTYLHWYQQKPGQAPRLLIYKVSNRFPGVPDRFSGSGSGTDFTLKISRVEAEDVGVYYCAQGTSVPFTFGQGTKLEIK
B17: dBBDu183H S62E/dBBDu072L (antibody, name in Kabat numbering, V domains shown)
VH: QVQLVESGGGLVQPGRSLRLSCAASGFTFSNAWMHWVRQAPGKGLEWVAQIKDKGNAYAAYYAPEVKGRFTISRDDSKNSIYLQMNSLKTEDTAVYYCHYVHYASASTVLPAFGVDAWGQGTTVTVSS
VL: DIVMTQSPLSLPVTPGEPASISCQASQELVHMNRNTYLHWYQQKPGQAPRLLIYKVSNRFPGVPDRFSGSGSGTDFTLKISRVEAEDVGVYYCAQGTSVPFTFGQGTKLEIK
B18: dBBDu183H S62G/dBBDu072L (antibody, name in Kabat numbering, V domains shown)
VH: QVQLVESGGGLVQPGRSLRLSCAASGFTFSNAWMHWVRQAPGKGLEWVAQIKDKGNAYAAYYAPGVKGRFTISRDDSKNSIYLQMNSLKTEDTAVYYCHYVHYASASTVLPAFGVDAWGQGTTVTVSS
VL: DIVMTQSPLSLPVTPGEPASISCQASQELVHMNRNTYLHWYQQKPGQAPRLLIYKVSNRFPGVPDRFSGSGSGTDFTLKISRVEAEDVGVYYCAQGTSVPFTFGQGTKLEIK
B19: dBBDu183H P100eR/dBBDu072L (antibody, name in Kabat numbering, V domains shown)
VH: QVQLVESGGGLVQPGRSLRLSCAASGFTFSNAWMHWVRQAPGKGLEWVAQIKDKGNAYAAYYAPSVKGRFTISRDDSKNSIYLQMNSLKTEDTAVYYCHYVHYASASTVLRAFGVDAWGQGTTVTVSS
VL: DIVMTQSPLSLPVTPGEPASISCQASQELVHMNRNTYLHWYQQKPGQAPRLLIYKVSNRFPGVPDRFSGSGSGTDFTLKISRVEAEDVGVYYCAQGTSVPFTFGQGTKLEIK
B20: dBBDu183H P100eN/dBBDu072L (antibody, name in Kabat numbering, V domains shown)
VH: QVQLVESGGGLVQPGRSLRLSCAASGFTFSNAWMHWVRQAPGKGLEWVAQIKDKGNAYAAYYAPSVKGRFTISRDDSKNSIYLQMNSLKTEDTAVYYCHYVHYASASTVLNAFGVDAWGQGTTVTVSS
VL: DIVMTQSPLSLPVTPGEPASISCQASQELVHMNRNTYLHWYQQKPGQAPRLLIYKVSNRFPGVPDRFSGSGSGTDFTLKISRVEAEDVGVYYCAQGTSVPFTFGQGTKLEIK

For the assay, the target named is T1, Human CD3eg linker (human).
T1 construct: single-chain construct; also called recombinant human CD3
T1 chain: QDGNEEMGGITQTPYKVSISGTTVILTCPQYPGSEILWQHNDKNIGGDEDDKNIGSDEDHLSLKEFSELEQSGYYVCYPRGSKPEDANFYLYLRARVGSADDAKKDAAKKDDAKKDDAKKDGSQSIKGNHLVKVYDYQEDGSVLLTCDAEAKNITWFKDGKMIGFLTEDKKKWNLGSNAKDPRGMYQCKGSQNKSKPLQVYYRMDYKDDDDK
Description: SPR, vs unmutated H183/L072.
With B1, the “fold change of affinity” value was found to be 1.9 fold.

On to B2, for which the “fold change of affinity” value stood at 1.5 fold.

On to B3, for which the “fold change of affinity” value was 1.3 fold.

In the case of B4, the “fold change of affinity” value is 1.4 fold.

For the molecule B5, the “fold change of affinity” value was found to be 1.4 fold.

Regarding B6, the “fold change of affinity” value amounted to 1.6 fold.

Take B7: the “fold change of affinity” value stood at 1.5 fold.

Take B8: the “fold change of affinity” value came to 1.7 fold.

Consider B9, for which the “fold change of affinity” value worked out at 1.4 fold.

As for B10, the “fold change of affinity” value came to 1.2 fold.

As for B11, the “fold change of affinity” value was 1.9 fold.

For the molecule B12, the “fold change of affinity” value is 2 fold.

Turning to B13, the “fold change of affinity” value was 1.2 fold.

With B14, the “fold change of affinity” value was 1.5 fold.

Regarding B15, the “fold change of affinity” value stood at 2.1 fold.

For the molecule B16, the “fold change of affinity” value was found to be 1.3 fold.

For B17, the “fold change of affinity” value came to 1.2 fold.

As for B18, the “fold change of affinity” value came out at 1.4 fold.

Take B19: the “fold change of affinity” value worked out at 2.2 fold.

As for B20, the “fold change of affinity” value turned out to be 1.3 fold.
